2 compounds from paper PMC6306009, “Combined use of cutinase and high-resolution mass-spectrometry to query the molecular architecture of cutin” (Plant Methods, 2018) can be followed below.

Data set [1] has as its system CCCC(=O)Oc1ccc([N+](=O)[O-])cc1. As to the kind of experiment: purified protein. The conditions noted are these: 20 mM Tris-HCl pH 8, 10 mM NaCl, 10% acetonitrile (standard assay), temperature not given.
Data set [2] has as its target T1, F. solani cutinase (Fusarium vanettenii, UniProt P00590).
T1 construct: gene CUT1; codon-optimised ORF, His-tagged, pET30f, E. coli BL21(DE3), sarkosyl extraction, Ni-NTA purified; 24-30 kDa on SDS-PAGE
The data set is described as follows: p-nitrophenol release, absorbance at […] nm. Format: biochemical. The conditions noted are these: 20 mM Tris-HCl pH 8, 10 mM NaCl, 10% acetonitrile (standard assay); temperature not given.

T1 sequence (P00590 32-230): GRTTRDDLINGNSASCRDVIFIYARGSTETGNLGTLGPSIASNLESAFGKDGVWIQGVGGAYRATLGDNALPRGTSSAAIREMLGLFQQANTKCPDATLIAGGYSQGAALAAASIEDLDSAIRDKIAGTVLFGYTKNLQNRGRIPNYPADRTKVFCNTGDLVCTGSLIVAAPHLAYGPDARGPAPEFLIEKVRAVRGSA

For “A. brassicicola cutinase (Alternaria brassicicola)”, in data set [1], the Km (in general, the concentration of substrate that gives half-maximal velocity) came out at 870 ± 50 µM; the kcat – broadly, the number of substrate molecules converted per active site and unit of time at saturation – is 12 ± 0.80 s⁻¹. `CCCC(=O)Oc1ccc([N+](=O)[O-])cc1` [p-nitrophenyl butyrate]: in data set [2], the Km was 1260 ± 60 µM.
